Three molecules from publication PMC7611084 (Chemical communications (Cambridge, England), 2020) can be followed below.

The target in one data set is T1, SpCID1 (Schizosaccharomyces pombe, UniProt O13833).
T1 sequence (O13833 1-405): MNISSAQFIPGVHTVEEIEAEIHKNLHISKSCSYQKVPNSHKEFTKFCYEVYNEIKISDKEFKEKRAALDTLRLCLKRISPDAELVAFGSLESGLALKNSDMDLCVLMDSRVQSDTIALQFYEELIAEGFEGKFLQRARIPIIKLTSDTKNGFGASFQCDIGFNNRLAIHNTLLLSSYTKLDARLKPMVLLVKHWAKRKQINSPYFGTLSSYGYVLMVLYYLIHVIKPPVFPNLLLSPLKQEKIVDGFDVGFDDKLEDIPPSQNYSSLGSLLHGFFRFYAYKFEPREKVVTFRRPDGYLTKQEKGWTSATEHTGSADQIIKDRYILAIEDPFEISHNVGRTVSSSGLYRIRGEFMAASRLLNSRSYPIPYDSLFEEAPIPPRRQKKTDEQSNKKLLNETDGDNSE
Put plainly: fluorescence titration. The format is binding.

Data set [1] addresses T2, SpCID1 (caffeine-induced death suppressor 1, terminal uridylyl transferase) (Schizosaccharomyces pombe, UniProt O13833 1-405).
T2 sequence: T1 sequence (O13833 1-405)
Put plainly: fluorescence titration.

The target of data set [2] is T2, SpCID1 (caffeine-induced death …). Put plainly: EMSA. (In general: In EMSA bound probe runs differently from free probe, usually more slowly.)

In the case of `O=c1[nH]c(=O)n([C@@H]2O[C@H](COP(=O)(O)OP(=O)(O)OP(=O)(O)O)[C@@H](O)[C@H]2O)cc1-c1cc2ccccc2o1` [compound 2, BFUTP], binding at SpCID1 was characterised by a dissociation constant (Kd) of 180 ± 40 nM.

UUACCAUAGAAUCAUGUGCCAUACAUCAU (ssRNA, 3'-terminal U (position 29) is 5-benzofuran-uridine (BFU)) [4BFU] yielded a Kd in data set [1] of 520 ± 40 nM.

In turn, UUACCAUAGAAUCAUGUGCCAUACAUCAU (ssRNA, 3'-terminal U (position 29) is 5-benzofuran-uridine (BFU)) [3BFU] registered a Kd in data set [2] of about 5.4 µM.

Broadly, the Kd is the constant that tells how readily two partners part at equilibrium. Read a high Kd as a looser complex.
